Results on two substances are retold here after article PMC6244167.

In assay [1] the target is vasoinhibin of 123 residues (first 123 residues of human PRL) (human). The experiment in a line: non-reducing Western blot; conditioned media of transduced HEK293T/17 cells run without reduction and immunoblotted for PRL; disulfide-bonded dimers seen as bands of ~18 kDa and ~28 kDa.
Assay [2] has as its target vasoinhibin of 79 residues (first 79 residues of human PRL) (human). Described as above.

As to “vasoinhibin of 123 residues (first 123 residues of human PRL) (domain or fragment)”, in assay [1], the stoichiometry N (as a rule, a count of units in the complex or per binding partner) was determined as 2.
As for “vasoinhibin of 79 residues (first 79 residues of human PRL) (domain or fragment)”, the stoichiometry N in assay [2] was found to be 2.
